Reference: US20150344580A1
Blank lines part the entries; values can stand above or below the substance they belong to.

Legend:
[1] = biological target: human chemokine receptor CCR7 (UniProt P32248); assay: flow cytometry, human CCR7 cells (summary table)
human CCR7-CHO cells = human CCR7-CHO cells (UniProt P32248); assay: FACS binding to CCR7-CHO cells
CCR7 (JVM-13) = CCR7 (JVM-13) (UniProt P32248); assay: cell binding; JVM-13 cells
CCR7 (CCL-AAT) = CCR7 (CCL-AAT) (UniProt P32248); assay: cell binding; CLL-AAT cells
[2] = biological target: human chemokine receptor CCR7 (UniProt P32248); assay: cell-based or functional assay
mouse CCR7 (mouse) = mouse CCR7 (mouse) (UniProt P47774); assay: flow cytometry, mouse CCR7 cells (summary table)
Sequence of mouse CCR7 (mouse) (P47774 25-378): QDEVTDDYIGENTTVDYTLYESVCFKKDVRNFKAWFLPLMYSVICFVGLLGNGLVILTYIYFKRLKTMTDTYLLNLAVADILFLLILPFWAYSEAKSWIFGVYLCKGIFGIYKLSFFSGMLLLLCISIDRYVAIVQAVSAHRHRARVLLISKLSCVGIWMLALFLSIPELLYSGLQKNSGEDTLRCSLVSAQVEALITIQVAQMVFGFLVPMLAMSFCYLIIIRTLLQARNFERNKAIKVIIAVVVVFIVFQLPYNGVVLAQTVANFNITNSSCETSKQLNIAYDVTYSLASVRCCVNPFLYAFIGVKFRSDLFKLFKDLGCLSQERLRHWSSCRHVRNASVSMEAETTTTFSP

Sequence of human chemokine receptor CCR7 (P32248 25-378 limits assumed): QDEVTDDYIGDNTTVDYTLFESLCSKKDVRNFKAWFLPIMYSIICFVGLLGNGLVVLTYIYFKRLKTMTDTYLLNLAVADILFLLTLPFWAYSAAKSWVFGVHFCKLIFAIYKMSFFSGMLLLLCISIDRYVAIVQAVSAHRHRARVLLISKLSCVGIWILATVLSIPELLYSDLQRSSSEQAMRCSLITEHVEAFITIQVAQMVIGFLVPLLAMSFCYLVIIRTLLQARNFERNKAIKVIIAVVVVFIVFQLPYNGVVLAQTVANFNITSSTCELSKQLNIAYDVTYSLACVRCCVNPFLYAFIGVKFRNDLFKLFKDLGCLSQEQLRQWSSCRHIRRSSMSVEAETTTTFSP
Sequence of human CCR7-CHO cells (P32248 25-378): as the sequence (P32248 25-378 limits assumed) above
Sequence of CCR7 (CCL-AAT) (P32248 25-378): as the sequence (P32248 25-378 limits assumed) above
Sequence of CCR7 (JVM-13) (P32248 25-378): as the sequence (P32248 25-378 limits assumed) above

EC50 [1]: 3.4 nM
Substance: IgG 3D12 (eBioscience), anti-human CCR7 control (antibody)

EC50 (human CCR7-CHO cells): 3.2 nM
Substance: IgG 3D12 eBioscience

EC50 (human CCR7-CHO cells): 5.9 nM
Substance: IgG 150503 R&D Systems

Kd (CCR7 (JVM-13)): 20 nM
Kd (CCR7 (CCL-AAT)): 27 nM
Substance: MAB197

EC50 [1]: 6.9 nM
IC50 of inhibition of Ca-flux induced by 15 nM CCL19, Chem-1 CCR7 human cells [2]: 10 nM
inhibition of chemotaxis of CLL-AAT cells toward 30 nM CCL19, 500 nM IgG [2]: 60%
Substance: Mouse monoclonal IgG2A anti-human CCR7, clone 150503 (R&D Systems MAB197) (antibody)

EC50 (mouse CCR7 (mouse)): 73.5 nM
Substance: Rat IgG2A anti-mouse CCR7, clone 4B12 (R&D Systems MAB3477) (antibody)
